The record followed here is patent US20100272644A1 (UNIVERSITY OF THE SCIENCES IN PHILADELPHIA, published 2010).

For this assay, the target named is defatted HSA (human serum albumin) (human, UniProt P02768 25-609). As to the kind of experiment: native acrylamide gel shift, fluorescein-labeled peptide (25 pmol) with defatted HSA (100 pmol).

Ends that are not written are not given here. fluorescein = fluorescein conjugated to the primary amine of the Lys side chain through an MHS ester

B1: fatty acid-conjugated faTraE peptide (peptide)
peptide: CHLDAHWK(fluorescein)G
modifications: not fully specified (residue 1)
notes: also called fatty acid-modified peptide; HOOC-(CH2)15-S-S-peptide
In the case of B1, the binding result is “binds”.
